Data published in paper doi:10.1101/2023.08.31.555674, “New structural features of the APC/C from high-resolution cryo-EM structures of apo-APC/C and APC/C^CDH1:EMI1 complexes” (bioRxiv, 2023).

Assays:
[1] = target: T1, APC8 subunit of the anaphase-promoting complex/cyclosome (human, UniProt Q9UJX2 1-597); assay: cryo-EM structure; APC/C^CDH1:EMI1 ternary complex, 2.9 Å; complex and grids prepared as described previously [19]; Titan Krios, Falcon 3; APC/C subunits co-expressed, complex purified; conditions: both partners purified
T1 construct: APC8, human, subunit of recombinant APC/C; Stood assembled in the recombinant APC/C; the contacts are told of the copy APC8(B); also called APC8(B); source: recombinant human APC/C, modified MultiBac system, as described previously [51,52]; purified within the APC/C

[2] = target: T2, APC1 subunit of the anaphase-promoting complex/cyclosome (human, UniProt Q9H1A4 1-1944); assay: as above; conditions: both partners purified
T2 construct: APC1, human, subunit of recombinant APC/C; Stood assembled in the unphosphorylated recombinant APC/C; source: recombinant human APC/C, modified MultiBac system, as described previously [51,52]; purified within the APC/C

B1: CDH1 (APC/C coactivator subunit) (natural protein, human, UniProt Q9UM11-2 1-493, looked up)
chain: MDQDYERRLLRQIVIQNENTMPRVTEMRRTLTPASSPVSSPSKHGDRFIPSRAGANWSVNFHRINENEKSPSQNRKAKDATSDNGKDGLAYSALLKNELLGAGIEKVQDPQTEDRRLQPSTPEKKGLFTYSLSTKRSSPDDGNDVSPYSLSPVSNKSQKLLRSPRKPTRKISKIPFKVLDAPELQDDFYLNLVDWSSLNVLSVGLGTCVYLWSACTSQVTRLCDLSVEGDSVTSVGWSERGNLVAVGTHKGFVQIWDAAAGKKLSMLEGHTARVGALAWNAEQLSSGSRDRMILQRDIRTPPLQSERRLQGHRQEVCGLKWSTDHQLLASGGNDNKLLVWNHSSLSPVQQYTEHLAAVKAIAWSPHQHGLLASGGGTADRCIRFWNTLTGQPLQCIDTGSQVCNLAWSKHANELVSTHGYSQNQILVWKYPSLTQVAKLTGHSYRVLYLAMSPDGEAIVTGAGDETLRFWNVFSKTRSTKESVSVLNLFTRIR
notes: CDH1, human; the last residue printed for CDH1 is 493 (chimera: residues 24 to 493 of CDH1), so the isoform of 493 residues is meant; the tag is told in the methods for CDH1 in general; source: expressed and purified as described previously [19,23,27]
B1: binds [1]; binds [2].
